Common to all, as to assay: cell-based or functional assay
Test [1] addresses human KOP receptor (human) (UniProt P41145).
The target in test [2] is human MOP receptor (human) (UniProt P35372).
The target of test [3] is human DOP receptor (human) (UniProt P41143).
In test [4] the target is human NOP recombinant receptor (N/OFQ peptide receptor) (human) (UniProt P41146).
In test [5] the target is native mouse NOP receptor (mouse vas deferens) (mouse) (UniProt P35377).
native mouse NOP receptor (mouse vas deferens) (mouse), sequence (P35377 whole entry): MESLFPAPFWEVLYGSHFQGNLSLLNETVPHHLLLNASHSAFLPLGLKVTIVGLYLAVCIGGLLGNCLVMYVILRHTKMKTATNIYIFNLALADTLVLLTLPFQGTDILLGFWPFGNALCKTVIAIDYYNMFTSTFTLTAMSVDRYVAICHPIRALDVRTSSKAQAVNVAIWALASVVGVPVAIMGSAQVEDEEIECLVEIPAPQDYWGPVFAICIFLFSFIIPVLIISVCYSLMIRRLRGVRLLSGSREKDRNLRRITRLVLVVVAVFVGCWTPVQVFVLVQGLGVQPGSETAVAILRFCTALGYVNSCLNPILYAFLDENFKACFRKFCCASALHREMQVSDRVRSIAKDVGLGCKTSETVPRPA

human KOP receptor (human), sequence (P41145 whole entry): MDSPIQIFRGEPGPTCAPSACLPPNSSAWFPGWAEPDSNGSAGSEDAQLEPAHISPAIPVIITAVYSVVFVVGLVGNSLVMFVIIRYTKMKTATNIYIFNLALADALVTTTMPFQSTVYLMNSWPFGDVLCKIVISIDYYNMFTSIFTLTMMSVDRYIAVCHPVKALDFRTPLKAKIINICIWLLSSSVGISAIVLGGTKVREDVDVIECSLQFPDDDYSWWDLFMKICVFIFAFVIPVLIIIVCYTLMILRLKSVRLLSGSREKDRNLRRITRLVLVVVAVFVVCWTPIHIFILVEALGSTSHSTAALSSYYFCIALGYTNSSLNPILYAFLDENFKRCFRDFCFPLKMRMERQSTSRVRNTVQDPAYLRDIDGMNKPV
human NOP recombinant receptor (N/OFQ peptide receptor) (human), sequence (P41146 whole entry): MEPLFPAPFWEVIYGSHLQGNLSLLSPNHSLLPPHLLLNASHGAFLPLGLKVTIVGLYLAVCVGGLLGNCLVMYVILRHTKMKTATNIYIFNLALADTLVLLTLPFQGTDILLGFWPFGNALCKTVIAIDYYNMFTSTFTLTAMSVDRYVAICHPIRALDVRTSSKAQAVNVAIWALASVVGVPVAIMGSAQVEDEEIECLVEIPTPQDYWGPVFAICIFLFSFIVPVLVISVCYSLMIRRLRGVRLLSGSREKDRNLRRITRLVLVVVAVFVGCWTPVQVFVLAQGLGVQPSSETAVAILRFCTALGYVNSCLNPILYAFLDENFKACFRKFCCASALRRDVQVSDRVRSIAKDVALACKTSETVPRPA
human MOP receptor (human), sequence (P35372 whole entry): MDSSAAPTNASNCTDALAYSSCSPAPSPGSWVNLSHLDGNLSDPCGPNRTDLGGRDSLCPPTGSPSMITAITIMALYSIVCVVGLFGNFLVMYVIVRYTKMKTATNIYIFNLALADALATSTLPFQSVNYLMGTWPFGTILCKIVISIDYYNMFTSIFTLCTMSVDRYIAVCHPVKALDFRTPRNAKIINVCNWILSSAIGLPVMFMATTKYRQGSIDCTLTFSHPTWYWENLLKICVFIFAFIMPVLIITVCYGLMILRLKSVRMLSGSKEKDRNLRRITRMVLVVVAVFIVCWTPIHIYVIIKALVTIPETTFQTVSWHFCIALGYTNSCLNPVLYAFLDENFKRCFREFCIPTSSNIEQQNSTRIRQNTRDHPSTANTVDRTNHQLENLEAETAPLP
human DOP receptor (human), sequence (P41143 whole entry): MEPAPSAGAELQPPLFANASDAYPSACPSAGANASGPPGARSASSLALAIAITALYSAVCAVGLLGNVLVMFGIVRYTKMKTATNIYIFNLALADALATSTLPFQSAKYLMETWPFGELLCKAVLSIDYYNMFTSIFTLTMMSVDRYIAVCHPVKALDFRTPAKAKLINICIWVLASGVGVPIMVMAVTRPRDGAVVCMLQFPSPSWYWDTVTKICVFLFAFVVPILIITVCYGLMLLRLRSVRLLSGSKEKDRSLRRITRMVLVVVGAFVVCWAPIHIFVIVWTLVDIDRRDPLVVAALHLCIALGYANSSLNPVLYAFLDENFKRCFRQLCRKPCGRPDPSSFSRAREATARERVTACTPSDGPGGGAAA

Turning to DPDPE (peptide), the calcium mobilization, potency in test [1], in test [2] and in test [4] was > 1000 nM throughout. The calcium mobilization, maximal effects in test [3] stood at 86%. Besides, the calcium mobilization, pEC50 (pEC50 (-log10 M)) in test [3] was 9.57.
As to “PWT2-N/OFQ (supramolecular aggregate of the PWT2 maleimido core with [Cys18]N/OFQ-NH2) (from UniProt Q13519 20-176)”, the calcium mobilization, potency in test [1] is > 1000 nM. For the same substance, the calcium mobilization, potency in test [2] was > 1000 nM. Also, in test [3], the calcium mobilization, potency is > 1000 nM. Besides, in test [5], the electrically stimulated mouse vas deferens, Emax (% inhibition of control twitch) was 93; the electrically stimulated mouse vas deferens, pEC50 (pEC50 (-log10 M)) was found to be 7.78; the mouse vas deferens from NOP(+/+) mice, Emax is 91%; the mouse vas deferens from NOP(+/+) mice, pEC50 (pEC50 (-log10 M)) stood at 7.92.
For the substance dermorphin (peptide), the calcium mobilization, potency in test [1], in test [3] and in test [4] was > 1000 nM throughout. In addition, the calcium mobilization, maximal effects in test [2] was 135%.
On to “dynorphin A (from UniProt P01213 207-223) (peptide)”, for which the calcium mobilization, pEC50 (pEC50 (-log10 M)) in test [2] stood at 6.67. For the same substance, the calcium mobilization, potency in test [4] is > 1000 nM.
As to “nociceptin/orphanin FQ (N/OFQ) peptide (from UniProt Q13519 20-176)”, the calcium mobilization, potency in test [1] was > 1000 nM. Besides, the calcium mobilization, potency in test [2] was > 1000 nM. Moreover, the calcium mobilization, potency in test [3] is > 1000 nM. In test [5], this substance had an electrically stimulated mouse vas deferens, Emax (% inhibition of control twitch) of 88; an electrically stimulated mouse vas deferens, pEC50 (pEC50 (-log10 M)) of 7.37; a mouse vas deferens from NOP(+/+) mice, Emax of 92%; a mouse vas deferens from NOP(+/+) mice, pEC50 (pEC50 (-log10 M)) of 7.68.

(Values after patent US9962447.)
